Here are results for 21 molecules from patent US20220227830A1, “QD DOSING OF GIP RECEPTOR AGONIST PEPTIDE COMPOUNDS AND USES THEREOF” (Takeda Pharmaceutical Company Limited, priority 2020, published 2022).

For experiment [1], the target named is T1, full-length human GIPR with an N-terminal FLAG tag (human, UniProt P48546 22-466).
T1 sequence (looked up): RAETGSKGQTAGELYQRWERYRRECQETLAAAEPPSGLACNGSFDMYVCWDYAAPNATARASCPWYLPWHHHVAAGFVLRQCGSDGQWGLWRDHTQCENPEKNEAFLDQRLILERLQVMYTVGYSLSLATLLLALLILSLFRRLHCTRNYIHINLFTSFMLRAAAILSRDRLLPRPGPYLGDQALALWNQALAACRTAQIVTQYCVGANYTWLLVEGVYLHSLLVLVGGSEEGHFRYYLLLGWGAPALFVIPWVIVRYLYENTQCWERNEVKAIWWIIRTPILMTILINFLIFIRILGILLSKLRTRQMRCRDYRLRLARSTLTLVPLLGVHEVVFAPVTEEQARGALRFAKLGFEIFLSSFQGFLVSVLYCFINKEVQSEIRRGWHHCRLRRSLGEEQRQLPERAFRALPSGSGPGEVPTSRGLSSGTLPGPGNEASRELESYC
Description: cell-based or functional assay.

Experiment [2] deals with full-length human GLP-1R with an N-terminal FLAG tag (human, UniProt P43220 24-463). Nature of the experiment: cell-based or functional assay.

Starred links: 1 amine or outer side, 2 acyl side, 3 side chain; linkers in the order of their positions; H or OH if unused. Non-standard residues stand in square brackets, D forms with d. Groups on a side chain read outwards from the residue. No end group written: not given here. *: point of attachment. 2OEGgE‑C16DA = O=C(O)CCCCCCCCCCCCCCC(=O)N[C@@H](CCC(=O)NCCOCCOCC(=O)NCCOCCOCC(=O)*)C(=O)O; G2E3 = linker of 2 Gly and 3 Glu (read GGEEE); C16 diacid = O=C(O)CCCCCCCCCCCCCCC(=O)*; C15 diacid = O=C(O)CCCCCCCCCCCCCC(=O)*; γGlu = O=C(O)[C@H](CCC(=O)[*:2])N[*:1]; NMeY = CN[C@@H](Cc1ccc(O)cc1)C(=O)O; AEEA = NCCOCCOCC(=O)O; Aib = CC(C)(N)C(=O)O

As for [NMeY][Aib]EGTFISDYSIALDRIHQK([AEEA-AEEA-γGlu-C16 diacid])NFVNWLLAQK (not fully specified) [Compound 4], in experiment [1], the “Human GIPR cAMP, HEK293T EC50” value turned out to be 0.0005 nM. Further, the “Human GLP1R cAMP HEK293T EC50” value in experiment [2] turned out to be 692 nM.
For [NMeY][Aib]EGTFISDYSIAK(2OEGgE‑C16DA)DR[Aib]AQQNFVNWLLAQK [Compound 1], the “Human GLP1R cAMP HEK293T EC50” value in experiment [2] is 871 nM.
Regarding [NMeY][Aib]EGTFISDYSIALDR[Aib]AQ[Aib]NFVNWLLAQKPSSGAPPPS-OH (not fully specified (residue 30)) [Compound 52], in experiment [1], the “Human GIPR cAMP, HEK293T EC50” value amounted to 0.0003 nM. The “Human GLP1R cAMP HEK293T EC50” value in experiment [2] came out at 240 nM.
For [NMeY][Aib]EGTFISDYSI[Aib]LDR[Aib]AQ[Aib]K([Gly-Gly-Glu-Glu-Glu-C15 diacid])FVNWLLAQK-NH2 [Compound 113], the “Human GIPR cAMP, HEK293T EC50” value in experiment [1] was determined as 0.0004 nM.

B1: Compound 51 (peptide)
peptide: Y[Aib]EGTFISDYSIAKDR[Aib]AQ[Aib]NFVNWLLAQSPSSGAPPPS-OH
modifications: not fully specified (residues 1, 14); also: Me-Tyr methyl position not given here
Take B1: in experiment [1], the “Human GIPR cAMP, HEK293T EC50” value is 0.0003 nM. In addition, the “Human GLP1R cAMP HEK293T EC50” value in experiment [2] came out at 1000 nM.

B2: Compound 142 (peptide)
peptide: YXEGTFISDYSIXXDRXAQXDFVNWLLAQRG
modifications: Me-Tyr1; Aib 2,13,17,20; Km14 = Lys(GGGGG-C15 diacid) (Table 3 prints the linker 'GS'); C-term OH
On to B2, for which, in experiment [1], the “Human GIPR cAMP, HEK293T EC50” value stood at 0.0001 nM.
On to [NMeY][Aib]EGTFISDYSIAKDR[Aib]AQQNFVNWLLAQK (not fully specified (residue 14, N-terminus)) [Compound 2], for which, in experiment [2], the “Human GLP1R cAMP HEK293T EC50” value was determined as 1000 nM.
Take Me-Y[Aib]EGTFISDYSI[Aib]K([AEEA-AEEA-γGlu-γGlu-C15 diacid])DR[Aib]AQ[Aib]NFVNWLLAQRPSSGAPPPS-NH2 [Compound 19]: the “Human GIPR cAMP, HEK293T EC50” value in experiment [1] stood at 0.0004 nM.

B3: Compound 25 (peptide)
peptide: [NMeY][Aib]EGTFISDYSIALDR[Aib]AQ[Aib]K([AEEA-AEEA-γGlu-γGlu-C15 diacid])FVNWLLAQKG-OH
modifications: N-terminus assumed
SMILES: CC[C@H](C)[C@H](NC(=O)[C@H](CO)NC(=O)[C@H](Cc1ccc(O)cc1)NC(=O)[C@H](CC(=O)O)NC(=O)[C@H](CO)NC(=O)[C@@H](NC(=O)[C@H](Cc1ccccc1)NC(=O)[C@@H](NC(=O)CNC(=O)[C@H](CCC(=O)O)NC(=O)C(C)(C)NC(=O)[C@H](Cc1ccc(O)cc1)NC)[C@@H](C)O)[C@@H](C)CC)C(=O)N[C@@H](C)C(=O)N[C@@H](CC(C)C)C(=O)N[C@@H](CC(=O)O)C(=O)N[C@@H](CCCNC(=N)N)C(=O)NC(C)(C)C(=O)N[C@@H](C)C(=O)N[C@@H](CCC(N)=O)C(=O)NC(C)(C)C(=O)N[C@@H](CCCCNC(=O)COCCOCCNC(=O)COCCOCCNC(=O)CC[C@H](NC(=O)CC[C@H](NC(=O)CCCCCCCCCCCCCC(=O)O)C(=O)O)C(=O)O)C(=O)N[C@@H](Cc1ccccc1)C(=O)N[C@H](C(=O)N[C@@H](CC(N)=O)C(=O)N[C@@H](Cc1c[nH]c2ccccc12)C(=O)N[C@@H](CC(C)C)C(=O)N[C@@H](CC(C)C)C(=O)N[C@@H](C)C(=O)N[C@@H](CCC(N)=O)C(=O)N[C@@H](CCCCN)C(=O)NCC(=O)O)C(C)C
For the molecule B3, the “Human GIPR cAMP, HEK293T EC50” value in experiment [1] amounted to 0.0005 nM.
As for Y[Aib]EGTFISDYSIAK([G2E3-C15 diacid])DR[Aib]AQ[Aib]NFVNWLLAQRPSSGAPPPS-OH (not fully specified (residue 1); also: Me-Tyr methyl position not given here) [Compound 49], the “Human GIPR cAMP, HEK293T EC50” value in experiment [1] is 0.0002 nM.
Me-Y[Aib]EGTFISDYSI[Aib]LDR[Aib]AQ[Aib]NFVNWLLAQK([2OEG-γGlu-γGlu-C15 diacid])PSSGAPPPS-NH2 [Compound 21]: the “Human GIPR cAMP, HEK293T EC50” value in experiment [1] was 0.0003 nM.
On to Me-Y[Aib]EGTFISDYSIALDR[Aib]AQ[Aib]KFVNWLLAQKG-OH (not fully specified (residues 1, 21)) [Compound 148], for which, in experiment [1], the “Human GIPR cAMP, HEK293T EC50” value was 0.0011 nM.
In the case of Me-Y[Aib]EGTFISDYSIALDR[Aib]KQ[Aib]NFVNWLLAQSPSSGAPPPS-NH2 (not fully specified (residues 1, 18)) [Compound 144], the “Human GIPR cAMP, HEK293T EC50” value in experiment [1] stood at 0.0001 nM.
Turning to Me-Y[Aib]EGTFISDYSI[Aib]LDRKAQ[Aib]NFVNWLLAQRPSSGAPPPS-NH2 (not fully specified (residues 1, 17)) [Compound 20], in experiment [1], the “Human GIPR cAMP, HEK293T EC50” value is 0.0003 nM.
Take Me-Y[Aib]EGTFISDYSIALDR[Aib]AQ[Aib]KFVNWLLAQKG-OH (not fully specified (residues 1, 21)) [Compound 143]: the “Human GIPR cAMP, HEK293T EC50” value in experiment [1] was found to be 0.0004 nM.
As for [NMeY][Aib]EGTFISDYSIALDK[Aib]AQ[Aib]NFVNWLLAK([AEEA-AEEA-γGlu-C15 diacid])S-OH (not fully specified) [Compound 35], the “Human GIPR cAMP, HEK293T EC50” value in experiment [1] came out at 0.0003 nM.
Regarding [NMeY][Aib]EGTFISDYSI[Aib]KDR[Aib]AQ[Aib]NFVNWLLAQRPSSGAPPPS-NH2 (not fully specified (residue 14)) [Compound 120], the “Human GIPR cAMP, HEK293T EC50” value in experiment [1] amounted to 0.0004 nM.
For the molecule Me-Y[Aib]EGTFISDYSIALDR[Aib]K([AEEA-AEEA-γGlu-γGlu-C15 diacid])Q[Aib]NFVNWLLAQSPSSGAPPPS-NH2 [Compound 17], in experiment [1], the “Human GIPR cAMP, HEK293T EC50” value is 0.0004 nM.
Regarding [NMeY][Aib]EGTFISDYSIAKDR[Aib]AQQNFVNWLLAQK (not fully specified (residue 14)) [Compound 3], the “Human GLP1R cAMP HEK293T EC50” value in experiment [2] stood at 692 nM.

B4: Compound 14 (peptide)
peptide: [NMeY][Aib]EGTFISDYSIALDR[Aib]AQ[Aib]K([AEEA-AEEA-γGlu-γGlu-C15 diacid])FVNWLLAQR-NH2
modifications: not fully specified (N-terminus); also: C-term NH2 in mods, C_TER column prints OH
For the molecule B4, the “Human GIPR cAMP, HEK293T EC50” value in experiment [1] stood at 0.0004 nM.
For [NMeY][Aib]EGTFISDYSIALDRK([G2E3-C15 diacid])AQ[Aib]NFVNWLLAQSPSSGAPPPS-OH (also: Me-Tyr methyl position not given here) [Compound 53], in experiment [1], the “Human GIPR cAMP, HEK293T EC50” value stood at 0.0001 nM. For the same molecule, the “Human GLP1R cAMP HEK293T EC50” value in experiment [2] stood at 617 nM.
